# Assay results: patent US10925971B2, “Methods of treating PRLR positive breast cancer” (Regeneron Pharmaceuticals, Inc., priority 2016, dated 2021)
# B1: H1H6958N2-DM1: anti-PRLR antibody H1H6958N2 conjugated to the maytansinoid DM1 through an SMCC linker (conjugate)
# VH: QVQLVESGGGVVQPGRSLRLSCGASGFTFRNYGMQWVRQGPGKGLEWVTLISFDGNDKYYADSVKGRFTISRDNSKNTLFLQMNSLRTEDTAVYYCARGGDFDYWGQGTLVTVSS
# VL: DIQMTQSPSSLSASVGDRVTITCRASQDIRKDLGWYQQKPGKAPKRLIYAASSLHSGVPSRFSGSGSGTEFTLTISSLQPEDFATYYCLQHNSYPMYTFGQGTKLEIK
# Assays:
# [1] = tested on: T47D cells; experiment: In vitro cell viability (cell kill) assay, CCK8; type: cell-based, human; conditions: T47D cells (PRLR 12× above background), 3 days; read-out: IC50, growth inhibition / cell viability
# Outline: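 T47D cells grown overnight, then exposed for 3 days to anti-PRLR-DM1 ADCs (SMCC non-cleavable linker) or DM1-SMe at 500 nM to 5 pM.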
# [2] = tested on: T47DvII tumors; experiment: Phospho-histone-H3 (pHH3) IHC in treated tumors, mitotic arrest; type: in vivo, mice
# Protocol: In order to validate the activity of DM1 on microtubule activity, the induction of mitotic arrest following treatment of T47DvII tumors with H1H6958N2-DM1 in vivo was assessed by phospho-histone-H3 (pHH3) IHC. Mice were implanted with T47DvII cells and tumors were grown for 15 days where mice were randomized based on tumor volume and dosed intravenously with either vehicle, H1H6958N2-DM1 at 5 or 15 mg/kg or Control ADC at 15 mg/kg (N=4-5). At 24, 48 or 72 hours post-treatment, mice were euthanized and tumors processed as FFPE samples for IHC analysis. Tumor sections were then stained with anti-phospho Histone H3 (pHH3) antibody (clone: Ser10, Cell Signaling Technology #9701) as a measure of mitotic cells. Images were scanned on an Aperio XT Scan scope at 40× (Leica Systems). PHH3 positive nuclear signals were imaged and quantified with the Halo CytoNuclear Count algorithm (Halo, Indica Labs). The percent of positive cells in each tumor was quantified for each group and an average calculated for each treatment condition.
# [3] = tested on: TM00107 PDX tumors; experiment: TM00107 patient derived xenograft (PDX) breast cancer model, tumor volume; type: in vivo, NOD SCID gamma (NSG) mice
# Protocol: Efficacy of H1H6958N2-DM1 was also assessed in a patient derived xenograft (PDX) model of breast cancer that may better represent the response in patients. NOD SCID gamma (NSG) mice bearing tumor fragments of the TM00107 PDX breast cancer tumor were sourced from The Jackson Laboratories. The TM00107 PDX model was derived from an ER+/−/PR−/HER2− metastatic breast adenocarcinoma. PRLR expression was confirmed by microarray analysis and immunohistochemistry on tumor sample slides provided by The Jackson Laboratory (data not shown). When tumors were an average volume of ˜400-600 mm^3 (21 days post implantation), mice were randomized into treatment groups (n=7 mice/group) and were administered H1H6958N2-DM1, control ADC, or vehicle control by intravenous injection once weekly for a total of 4 weeks. A separate treatment group was administered paclitaxel by intravenous injection every 4 days for a total of 4 doses.
molecule,measurement,setting,value
B1,IC50,[1],1.3 nM
same,pHH3 immunoreactivity in tumors,"[2]; 5 mg/kg intravenously, relative to vehicle",significant increase relative to vehicle treated tumors
same,pHH3 levels in tumors,"[2]; 15 mg/kg, data not shown",further increase in pHH3 levels
same,time of peak pHH3 levels post treatment,"[2]; sampled at 24, 48 or 72 hours",48 hours
same,average tumor volume,"[3]; 10 mg/kg once weekly, day 30, compared to vehicle",no significant difference in average tumor volume
same,average tumor volumes,"[3]; 20 mg/kg once weekly, day 30, compared to 20 mg/kg control ADC",moderate but significant (p<0.01) decrease
